Test results taken from PMC9758175.

Experiments:
[1] = target: WspR-His (Lysobacter enzymogenes OH11)
[2] = target: WspR-His (Lysobacter enzymogenes OH11); assay: MST; as the WspR-RpfG MST assay, with 10 μM c-di-GMP added
[3] = target: WspR-His (Lysobacter enzymogenes OH11); assay: MST; 100 nM WspR-His labelled with RED-Tris-NTA, titrated with MBP-RpfG or its variant; 50 mM Tris pH 7.5, 150 mM NaCl, 10 mM MgCl2, 0.05% Tween 20; 25 °C; Monolith NT.115
[4] = target: WspR-His~P (Lysobacter enzymogenes OH11); assay: as above
Chain of WspR-His~P (Lysobacter enzymogenes OH11) (main, as listed by the source): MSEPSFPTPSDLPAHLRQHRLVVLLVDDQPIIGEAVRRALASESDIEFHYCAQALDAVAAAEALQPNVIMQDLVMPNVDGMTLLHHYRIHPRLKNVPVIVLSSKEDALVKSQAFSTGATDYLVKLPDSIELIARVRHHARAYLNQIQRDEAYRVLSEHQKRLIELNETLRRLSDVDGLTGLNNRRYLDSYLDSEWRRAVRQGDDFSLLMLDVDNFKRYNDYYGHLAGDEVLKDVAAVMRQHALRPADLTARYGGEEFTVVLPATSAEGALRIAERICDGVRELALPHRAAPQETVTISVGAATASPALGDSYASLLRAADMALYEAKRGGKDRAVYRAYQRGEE

[5] = target: WspR-His (Lysobacter enzymogenes OH11); assay: MST; as the WspR-RpfG MST assay, with 10 μM DSF added

Chain of WspR-His (Lysobacter enzymogenes OH11) (main, as listed by the source): as above

| reduction of c-di-GMP production by WspR-His from GTP (HPLC peak area) on addition of MBP-RpfG [1] [%] | Kd [2] [nM] | Kd [3] [nM] | Kd [4] [nM] | Kd [5] [nM] | reduction of c-di-GMP production by WspR-His from GTP (HPLC peak area) on addition of MBP-RpfG^H190A [1] [%] | Substance |
| --- | --- | --- | --- | --- | --- | --- |
| 82 | 320 | 150 | 930 | 250 | – | MBP-RpfG (enzyme) |
| – | – | 200 | 560 | – | 34 | MBP-RpfG^H190A (enzyme) |
| – | – | 240 | – | – | – | phosphorylated RpfG (RpfG~P) (enzyme) |
